Test results published in FireProtDB (doi:10.1042/bj2870481).

Details: Aspergillus oryzae (strain ATCC 42149 / RIB 40), 25 °C, GdnHCl, Absorbance, Unknown, KCl 0.1 M, reversible: yes, whole UniProt chain shown

B1: Guanyl-specific ribonuclease T1 wild type, P00651 (protein)
chain: MMYSKLLTLTTLLLPTALALPSLVERACDYTCGSNCYSSSDVSTAQAAGYQLHEDGETVGSNSYPHKYNNYEGFDFSVSSPYYEWPILSSGDVYSGGSPGADRVVFNENNQLAGVITHTGASGNNFVECT
In the case of B1, the denaturant m value (pH 1.3) is reported as 2.03 kcal/mol/M, the “denaturant midpoint (higher = more stable)” value (“denaturant midpoint” for short) (pH 1.3) is reported as 0.93 M and the unfolding free energy (pH 1.3) is reported as 7.95 kJ/mol. The denaturant m value (pH 3) was 2.91 kcal/mol/M, the “denaturant midpoint” value (pH 3) was 1.94 M and the unfolding free energy (pH 3) was 23.7 kJ/mol. For the same protein, the denaturant m value (pH 7) was 2.93 kcal/mol/M, the “denaturant midpoint” value (pH 7) was 2.97 M and the unfolding free energy (pH 7) was 36.6 kJ/mol.
